From article PMC6536502, “Structural insights into DNA recognition by AimR of the arbitrium communication system in the SPbeta phage” (Cell Discovery, 2019)

Tests used:
AimR N46D = molecular target: T1, AimR N46D (Bacillus phage SPbeta, UniProt O64094 1-386, N46D); test: EMSA; EMSA: 25 mM Tris-HCl pH 8.0, 150 mM NaCl, 5 mM MgCl2, 5 mM DTT, 0.1 mg/ml BSA, 10% glycerol, 50 ug/ml salmon sperm DNA, 4 C, 15 min; smFRET: 20 mM phosphate pH; details: protein: recombinant; tags: 6xHis removed by drICE; chain copies: 2
T1 sequence: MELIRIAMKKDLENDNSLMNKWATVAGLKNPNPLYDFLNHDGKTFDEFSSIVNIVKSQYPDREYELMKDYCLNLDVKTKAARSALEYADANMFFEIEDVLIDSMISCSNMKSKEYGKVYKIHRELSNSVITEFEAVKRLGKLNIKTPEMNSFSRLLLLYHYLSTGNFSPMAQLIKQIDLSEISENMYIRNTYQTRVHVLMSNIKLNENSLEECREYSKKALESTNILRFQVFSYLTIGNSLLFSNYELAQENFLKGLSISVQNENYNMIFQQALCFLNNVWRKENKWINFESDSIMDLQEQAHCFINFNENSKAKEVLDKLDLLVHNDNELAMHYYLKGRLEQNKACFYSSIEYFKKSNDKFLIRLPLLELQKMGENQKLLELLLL

AimR T78D = molecular target: T2, AimR T78D (Bacillus phage SPbeta, UniProt O64094 1-386, T78D); test: as above; details: protein: recombinant; tags: 6xHis removed by drICE; chain copies: 2
T2 sequence: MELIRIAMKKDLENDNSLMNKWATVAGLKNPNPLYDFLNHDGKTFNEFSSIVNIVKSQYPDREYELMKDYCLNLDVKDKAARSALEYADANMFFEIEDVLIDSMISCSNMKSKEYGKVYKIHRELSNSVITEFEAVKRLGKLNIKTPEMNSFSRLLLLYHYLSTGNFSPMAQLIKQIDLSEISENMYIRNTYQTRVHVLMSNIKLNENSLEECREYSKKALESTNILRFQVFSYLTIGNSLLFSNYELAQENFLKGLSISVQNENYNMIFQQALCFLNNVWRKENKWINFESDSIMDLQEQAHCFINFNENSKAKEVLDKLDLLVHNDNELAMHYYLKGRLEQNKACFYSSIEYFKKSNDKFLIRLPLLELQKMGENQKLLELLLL

AimR K77D = molecular target: T3, AimR K77D (Bacillus phage SPbeta, UniProt O64094 1-386, K77D); test: as above; details: protein: recombinant; tags: 6xHis removed by drICE; chain copies: 2
T3 sequence: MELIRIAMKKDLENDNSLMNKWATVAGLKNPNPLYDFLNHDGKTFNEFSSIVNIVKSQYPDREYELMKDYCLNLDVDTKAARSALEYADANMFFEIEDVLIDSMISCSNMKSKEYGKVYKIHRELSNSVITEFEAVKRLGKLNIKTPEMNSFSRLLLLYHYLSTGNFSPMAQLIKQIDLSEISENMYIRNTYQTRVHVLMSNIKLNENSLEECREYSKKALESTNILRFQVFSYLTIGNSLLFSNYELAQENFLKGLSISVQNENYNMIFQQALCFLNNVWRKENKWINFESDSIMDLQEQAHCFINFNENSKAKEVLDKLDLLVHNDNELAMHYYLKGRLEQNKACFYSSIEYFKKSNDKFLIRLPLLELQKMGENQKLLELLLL

AimR = molecular target: T4, AimR (Bacillus phage SPbeta, UniProt O64094 1-386); test: EMSA; 5 mM Mg2+; EMSA: 25 mM Tris-HCl pH 8.0, 150 mM NaCl, 5 mM MgCl2, 5 mM DTT, 0.1 mg/ml BSA, 10% glycerol, 50 ug/ml salmon sperm DNA, 4 C, 15 min; smFRET: 20 mM phosphate pH; details: protein: recombinant; tags: C-terminal 8xHis; chain copies: 2
T4 sequence: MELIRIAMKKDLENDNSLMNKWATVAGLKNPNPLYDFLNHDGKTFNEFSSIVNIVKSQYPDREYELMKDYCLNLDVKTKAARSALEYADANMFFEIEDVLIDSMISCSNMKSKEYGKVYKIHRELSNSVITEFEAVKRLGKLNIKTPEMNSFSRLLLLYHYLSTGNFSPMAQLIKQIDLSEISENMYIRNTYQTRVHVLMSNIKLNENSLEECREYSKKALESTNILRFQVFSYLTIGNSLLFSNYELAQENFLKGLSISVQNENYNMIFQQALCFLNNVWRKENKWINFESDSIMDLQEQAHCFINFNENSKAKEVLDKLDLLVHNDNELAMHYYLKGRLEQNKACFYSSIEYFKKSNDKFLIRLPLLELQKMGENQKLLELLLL

AimR N32A = molecular target: T5, AimR N32A (Bacillus phage SPbeta, UniProt O64094 1-386, N32A); test: as above; details: protein: recombinant; tags: 6xHis removed by drICE; chain copies: 2
T5 sequence: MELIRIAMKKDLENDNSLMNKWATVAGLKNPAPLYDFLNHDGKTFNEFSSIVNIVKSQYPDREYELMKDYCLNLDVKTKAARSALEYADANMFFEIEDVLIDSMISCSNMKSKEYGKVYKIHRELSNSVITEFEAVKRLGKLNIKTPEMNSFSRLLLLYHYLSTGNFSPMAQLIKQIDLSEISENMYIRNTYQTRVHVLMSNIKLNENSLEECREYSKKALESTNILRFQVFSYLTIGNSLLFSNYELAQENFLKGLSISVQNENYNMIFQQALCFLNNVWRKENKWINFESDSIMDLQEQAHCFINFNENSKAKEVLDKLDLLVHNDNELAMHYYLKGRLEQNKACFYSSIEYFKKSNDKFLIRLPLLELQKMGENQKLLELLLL

B1: 31 bp aimX-upstream palindromic DNA (dsDNA)
DNA 1: ACTTAAATATTAGGTTTTAATAACATCTAGT
DNA 2: ACTAGATGTTATTAAAACCTAATATTTAAGT
Question: What does the source list for B1?
Answer: binding result (AimR N46D): binds; binding result (AimR T78D): binds; binding result (AimR K77D): binds; Kd (AimR): 0.101 ± 0.0276 µM; Kd (AimR N32A): 6.82 ± 2.25 µM
